Experimental data: publication PMC9482650, “Quantitative fragmentomics allow affinity mapping of interactomes” (Nature Communications, 2022)

Assays:
Experiment in all cases: holdup assay
Design in all cases: key: below the threshold = too weak to quantify, mostly under pKd 3.1 to 4
[1] = biological target: T1, NHERF1_2, O14745
T1 sequence (O14745 149-244, limits assumed, looked up): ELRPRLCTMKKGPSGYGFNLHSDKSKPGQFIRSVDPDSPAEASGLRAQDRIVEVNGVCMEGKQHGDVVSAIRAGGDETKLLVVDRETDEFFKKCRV

[2] = biological target: T2, GIPC1, O14908
T2 sequence (O14908 128-223, limits assumed, looked up): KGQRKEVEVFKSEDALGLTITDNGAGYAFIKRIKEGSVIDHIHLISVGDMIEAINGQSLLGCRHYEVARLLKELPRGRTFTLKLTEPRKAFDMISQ

[3] = biological target: RIMS2, Q9UQ26
[4] = biological target: T3, PTPN13_5, Q12923
T3 sequence (Q12923 1877-1975, limits assumed, looked up): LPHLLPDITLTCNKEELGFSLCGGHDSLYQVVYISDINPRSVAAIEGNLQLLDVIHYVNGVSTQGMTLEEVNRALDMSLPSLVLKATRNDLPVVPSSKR

[5] = biological target: T4, MAGI2_1, Q86UL8
T4 sequence (Q86UL8 12-111, limits assumed, looked up): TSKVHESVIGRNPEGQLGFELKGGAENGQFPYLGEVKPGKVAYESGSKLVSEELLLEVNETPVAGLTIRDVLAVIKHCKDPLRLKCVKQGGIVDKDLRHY

[6] = biological target: MAGI3_6, Q5TCQ9
[7] = biological target: IL16_2, Q14005
[8] = biological target: T5, MPDZ_11, O75970
T5 sequence (O75970 1720-1817, limits assumed, looked up): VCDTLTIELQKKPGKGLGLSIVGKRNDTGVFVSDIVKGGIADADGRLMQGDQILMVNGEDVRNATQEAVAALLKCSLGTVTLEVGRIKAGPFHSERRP

[9] = biological target: AHNAK2, Q8IVF2
[10] = biological target: PDZD9, Q8IXQ8
[11] = biological target: T6, PDZD7_1, Q9H5P4
T6 sequence (Q9H5P4 81-178, limits assumed, looked up): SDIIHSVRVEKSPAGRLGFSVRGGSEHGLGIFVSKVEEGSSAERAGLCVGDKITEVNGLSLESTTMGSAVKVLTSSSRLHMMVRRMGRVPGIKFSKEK

[12] = biological target: T7, TJP3_1, O95049
T7 sequence (O95049 6-103, limits assumed, looked up): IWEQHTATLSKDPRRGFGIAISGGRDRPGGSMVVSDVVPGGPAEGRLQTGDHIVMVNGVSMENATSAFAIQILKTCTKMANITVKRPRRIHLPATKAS

[13] = biological target: T8, SHANK3, Q9BYB0
T8 sequence (Q9BYB0 641-750, limits assumed, looked up): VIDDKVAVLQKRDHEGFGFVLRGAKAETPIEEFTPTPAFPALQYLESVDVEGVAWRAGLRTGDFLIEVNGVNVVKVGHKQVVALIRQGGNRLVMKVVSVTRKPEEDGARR

[14] = biological target: T9, MPP1, Q00013
T9 sequence (Q00013 66-162, limits assumed, looked up): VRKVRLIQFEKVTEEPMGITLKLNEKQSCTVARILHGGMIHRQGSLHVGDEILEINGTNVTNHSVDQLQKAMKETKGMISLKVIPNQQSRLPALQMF

[15] = biological target: T10, SHROOM2, Q13796
T10 sequence (Q13796 21-118, limits assumed, looked up): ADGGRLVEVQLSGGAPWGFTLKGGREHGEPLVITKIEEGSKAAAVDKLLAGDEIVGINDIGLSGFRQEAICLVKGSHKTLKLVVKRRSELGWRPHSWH

[16] = biological target: T11, LNX2_1, Q8N448
T11 sequence (Q8N448 228-328, limits assumed, looked up): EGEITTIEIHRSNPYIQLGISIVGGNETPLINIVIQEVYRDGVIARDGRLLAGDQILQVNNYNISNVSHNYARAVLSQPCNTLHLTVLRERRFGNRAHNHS

[17] = biological target: T12, USH1C_1, Q9Y6N9
T12 sequence (Q9Y6N9 82-179, limits assumed, looked up): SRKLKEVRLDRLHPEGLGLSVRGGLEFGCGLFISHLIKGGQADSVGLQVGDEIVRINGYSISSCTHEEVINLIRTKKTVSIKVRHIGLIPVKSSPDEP

[18] = biological target: T13, PDZD2_4, O15018
T13 sequence (O15018 723-823, limits assumed, looked up): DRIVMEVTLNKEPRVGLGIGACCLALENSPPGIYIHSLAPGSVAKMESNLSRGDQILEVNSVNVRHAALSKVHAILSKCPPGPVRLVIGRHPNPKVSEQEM

[19] = biological target: T14, PDZD4, Q76G19
T14 sequence (Q76G19 125-224, limits assumed, looked up): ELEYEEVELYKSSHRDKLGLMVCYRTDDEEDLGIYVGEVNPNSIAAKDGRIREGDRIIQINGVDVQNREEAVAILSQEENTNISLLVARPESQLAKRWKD

[20] = biological target: MAGIX, Q9H6Y5
[21] = biological target: SDCBP_1, O00560
[22] = biological target: MAST3, O60307
[23] = modified: acetyl on K at position -1 from the C-terminal residue
[24] = modified: phospho on S at position -3 from the C-terminal residue
[25] = plain residues with an end cap or a label only (N-terminal biotin on a linker: (peg)3)

Sequence of IL16_2, Q14005 (Q14005 350-450): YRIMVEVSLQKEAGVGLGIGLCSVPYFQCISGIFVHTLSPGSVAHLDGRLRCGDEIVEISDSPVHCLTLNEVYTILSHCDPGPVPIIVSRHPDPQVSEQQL
Sequence of RIMS2, Q9UQ26 (Q9UQ26 637-758): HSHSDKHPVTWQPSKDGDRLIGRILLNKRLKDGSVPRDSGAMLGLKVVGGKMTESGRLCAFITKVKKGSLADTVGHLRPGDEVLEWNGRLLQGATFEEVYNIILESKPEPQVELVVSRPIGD
Sequence of MAST3, O60307 (O60307 945-1048): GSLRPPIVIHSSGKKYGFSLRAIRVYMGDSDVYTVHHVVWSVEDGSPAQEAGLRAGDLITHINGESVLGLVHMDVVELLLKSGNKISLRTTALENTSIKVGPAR
Sequence of SDCBP_1, O00560 (O00560 111-198): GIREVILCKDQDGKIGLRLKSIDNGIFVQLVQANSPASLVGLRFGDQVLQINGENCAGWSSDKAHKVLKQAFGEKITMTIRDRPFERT
Sequence of AHNAK2, Q8IVF2 (Q8IVF2 108-193): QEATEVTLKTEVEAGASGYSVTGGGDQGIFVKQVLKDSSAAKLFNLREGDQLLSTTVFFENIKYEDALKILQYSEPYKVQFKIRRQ
Sequence of PDZD9, Q8IXQ8 (Q8IXQ8 23-120): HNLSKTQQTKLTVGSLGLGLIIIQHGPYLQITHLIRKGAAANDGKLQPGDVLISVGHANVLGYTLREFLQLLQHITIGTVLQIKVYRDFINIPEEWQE
Sequence of MAGIX, Q9H6Y5 (Q9H6Y5 118-211): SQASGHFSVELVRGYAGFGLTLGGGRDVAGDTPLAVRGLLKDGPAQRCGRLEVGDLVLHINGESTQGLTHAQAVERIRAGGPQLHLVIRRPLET
Sequence of MAGI3_6, Q5TCQ9 (Q5TCQ9 1014-1103): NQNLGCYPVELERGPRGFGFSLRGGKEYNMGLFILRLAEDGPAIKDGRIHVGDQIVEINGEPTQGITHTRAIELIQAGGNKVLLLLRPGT

B1: PTEN_Ac, P60484 (peptide)
chain: DEDQHTQITKV
For B1, the pKd [1, 23] was “below the threshold”, the pKd [2, 23] was “below the threshold” and the pKd [3, 23] was “below the threshold”. The pKd [4, 23] was “below the threshold”, the pKd [5, 23] was “below the threshold” and the pKd [6, 23] was 4.08. The pKd [7, 23] was “below the threshold”, the pKd [8, 23] was 3.78 and the pKd [9, 23] was “below the threshold”. For the same binder, the pKd [10, 23] was “below the threshold”, the pKd [11, 23] was “below the threshold” and the pKd [12, 23] was “below the threshold”. The pKd [13, 23] was 4.04, the pKd [14, 23] was “below the threshold” and the pKd [15, 23] was “below the threshold”. The pKd [16, 23] was “below the threshold”, the pKd [17, 23] was “below the threshold” and the pKd [18, 23] was “below the threshold”. The pKd [19, 23] was “below the threshold”, the pKd [20, 23] was “below the threshold” and the pKd [21, 23] was “below the threshold”. It also gave a pKd [22, 23] of 4.06.

B2: RPS6KA1_-3P, Q15418 (peptide)
chain: RRVRKLPSTTL
B2 was tested, and the pKd [1, 24] was “below the threshold”, the pKd [2, 24] was “below the threshold” and the pKd [3, 24] was “below the threshold”. For the same binder, the pKd [4, 24] was “below the threshold”, the pKd [5, 24] was “below the threshold” and the pKd [6, 24] was “below the threshold”. The pKd [7, 24] was “below the threshold”, the pKd [8, 24] was “below the threshold” and the pKd [9, 24] was 3.54. For the same binder, the pKd [10, 24] was “below the threshold”, the pKd [11, 24] was “below the threshold” and the pKd [12, 24] was “below the threshold”. For the same binder, the pKd [13, 24] was “below the threshold”, the pKd [14, 24] was “below the threshold” and the pKd [15, 24] was 3.71. The pKd [16, 24] was “below the threshold”, the pKd [17, 24] was “below the threshold” and the pKd [18, 24] was “below the threshold”. For the same binder, the pKd [19, 24] was “below the threshold”, the pKd [20, 24] was “below the threshold” and the pKd [21, 24] was “below the threshold”. The pKd [22, 24] was “below the threshold”.

B3: SARS-Cov2-3a, P0DTC3 (peptide)
chain: YDEPTTTTSVPL
With B3 the pKd [1, 25] was “below the threshold”, the pKd [2, 25] was “below the threshold” and the pKd [3, 25] was “below the threshold”. The pKd [4, 25] was “below the threshold”, the pKd [5, 25] was “below the threshold” and the pKd [6, 25] was “below the threshold”. The pKd [7, 25] was “below the threshold”, the pKd [8, 25] was “below the threshold” and the pKd [9, 25] was “below the threshold”. The pKd [10, 25] was “below the threshold”, the pKd [11, 25] was “below the threshold” and the pKd [12, 25] was “below the threshold”. For the same binder, the pKd [13, 25] was “below the threshold”, the pKd [14, 25] was “below the threshold” and the pKd [15, 25] was 3.81. For the same binder, the pKd [16, 25] was “below the threshold”, the pKd [17, 25] was “below the threshold” and the pKd [18, 25] was “below the threshold”. For the same binder, the pKd [19, 25] was “below the threshold”, the pKd [20, 25] was “below the threshold” and the pKd [21, 25] was “below the threshold”. For the same binder, the pKd [22, 25] was “below the threshold”.
